As a reminder, the koff is the rate constant with which the complex falls apart. The low end stands for a long-lived complex, the high end for a short-lived complex.

In this test the target is SARS-CoV-2 S receptor-binding domain (residues 330-531), Avi-tagged and biotinylated (SARS-CoV-2, UniProt P0DTC2 330-531). The test is described as follows: BLI. Background: In BLI a coated tip is dipped into the sample, and binding shifts an interference pattern.

B1: DL28 (monovalent nanobody) (VHH)
VHH: QVQLQESGGGLVQAGGSLRLSCAASGSDFSSSTMGWYRQAPGKQREFVAISSEGSTSYAGSVKGRFTISRDNAKNTVYLQMNSLEPEDTAVYYCNVVDRWYDYWGQGTQVTVSA
Consider B1, for which the koff was found to be 0.000743 s⁻¹.

The values are drawn from publication PMC9201380 (2022).
